Data from article PMC11874374.

What was measured:
[1] = target: histidine-tagged JAM-A (human) (UniProt Q9Y624); experiment: non-reducing gel electrophoresis
[2] = target: recombinant human JAM-A (Junctional Adhesion Molecule-A) (human) (UniProt Q9Y624); experiment: non-reducing gel electrophoresis

stoichiometry N [1] | stoichiometry N [2] | Substance
2 |  | histidine-tagged JAM-A (from UniProt Q9Y624 28-299) (natural protein)
 | 3 | recombinant human JAM-A (Junctional Adhesion Molecule-A) (from UniProt Q9Y624 28-299) (natural protein)
